The target in test [1] is T1, human CEACAM5, extracellular (mature form), R&D Systems 4128-CM (human, UniProt P06731 35-685).
T1 construct: used biotinylated in some assays; also called TPP-1438; hC5
T1 sequence: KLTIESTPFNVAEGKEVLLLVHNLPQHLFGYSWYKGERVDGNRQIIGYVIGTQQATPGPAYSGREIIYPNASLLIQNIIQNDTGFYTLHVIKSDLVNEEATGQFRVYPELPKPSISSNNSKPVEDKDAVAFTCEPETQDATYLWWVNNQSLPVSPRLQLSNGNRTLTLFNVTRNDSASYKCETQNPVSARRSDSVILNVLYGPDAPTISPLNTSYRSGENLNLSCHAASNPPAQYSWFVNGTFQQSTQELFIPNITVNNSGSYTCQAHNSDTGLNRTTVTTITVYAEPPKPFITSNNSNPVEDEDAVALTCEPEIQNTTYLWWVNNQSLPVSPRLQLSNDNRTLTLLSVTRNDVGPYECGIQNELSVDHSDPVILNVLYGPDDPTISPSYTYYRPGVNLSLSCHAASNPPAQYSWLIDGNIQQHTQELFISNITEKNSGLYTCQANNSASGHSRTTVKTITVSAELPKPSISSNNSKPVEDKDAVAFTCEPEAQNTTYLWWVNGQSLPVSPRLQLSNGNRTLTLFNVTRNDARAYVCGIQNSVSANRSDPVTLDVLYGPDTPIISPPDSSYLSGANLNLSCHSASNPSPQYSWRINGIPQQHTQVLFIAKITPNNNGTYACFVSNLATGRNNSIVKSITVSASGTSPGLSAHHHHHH
Nature of the test: SPR, antibody captured, antigen as analyte.

For test [2], the target named is T2, human CEACAM6, extracellular (mature form), R&D Systems 3934-CM (human, UniProt P40199 35-320).
T2 construct: used biotinylated in some assays; also called TPP-1436; Recombinant human CEACAM6
T2 sequence: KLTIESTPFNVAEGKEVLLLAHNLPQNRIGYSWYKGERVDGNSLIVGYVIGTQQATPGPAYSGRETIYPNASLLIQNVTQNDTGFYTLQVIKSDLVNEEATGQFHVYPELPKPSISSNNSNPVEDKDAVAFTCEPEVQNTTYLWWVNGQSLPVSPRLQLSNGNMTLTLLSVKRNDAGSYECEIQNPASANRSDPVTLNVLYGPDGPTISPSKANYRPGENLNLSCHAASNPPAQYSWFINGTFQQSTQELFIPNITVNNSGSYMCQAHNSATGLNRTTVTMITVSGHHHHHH
Nature of the test: SPR, antibody captured, antigen as analyte. (Surface plasmon resonance follows binding to a sensor surface in real time, without labels.)

Test [3] deals with T3, Macaca fascicularis CEACAM6, extracellular (mature form), obtained by Factor Xa cleavage of TPP-2443 (Macaca fascicularis).
T3 construct: used biotinylated in some assays; also called APP-319; Cynomolgus CEACAM6
T3 chain: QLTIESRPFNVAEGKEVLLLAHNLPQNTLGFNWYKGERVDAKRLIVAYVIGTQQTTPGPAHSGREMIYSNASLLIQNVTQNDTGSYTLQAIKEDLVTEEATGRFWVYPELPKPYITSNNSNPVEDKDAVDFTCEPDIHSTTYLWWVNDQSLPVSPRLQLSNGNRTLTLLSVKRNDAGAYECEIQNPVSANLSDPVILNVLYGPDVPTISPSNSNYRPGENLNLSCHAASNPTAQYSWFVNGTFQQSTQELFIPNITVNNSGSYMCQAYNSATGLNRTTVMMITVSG
Nature of the test: ELISA, antibody captured, biotinylated antigen titrated. The method, then:
(§1) The binding characteristics of these antibodies were also determined by a binding ELISA (monovalent binding, biotinylated CEACAM proteins): A 1:440 dilution of an anti-human IgG (Sigma, 12136) in Coating buffer (Candor) was used to coat black 384-well Maxisorp plates (Nunc) for 1 hour at 37° C. After one wash with PBS/0.05% Tween-20 the plates were blocked with 100% SmartBlock (Candor) for 1 hour at 37° C. After three washes, 2 μg/ml of the relevant antibodies were added to the plate in PBS/0.05% Tween-20/10% SmartBlock. The plates were incubated for 1 hour at room temperature. After three washes dilution series of the relevant biotinylated CEACAM proteins in PBS/0.05% Tween-20/10% SmartBlock were added and the plates were incubated for one hour at room temperature. After three washes 1 μg/ml of Streptavidin-Peroxidase (Sigma, S5512) in PBS/0.05% Tween-20/10% SmartBlock was added and the plates were incubated for 30 minutes at room temperature. After three washes, the plates were developed with Amplex Red (Life Technologies) and fluorescence was read at an emission wavelength of 590 nm. GraphPad Prism 6.0 software was used to calculate EC₅₀ values using four-parameter non-linear curve fit.
In general terms: In an ELISA, binding on a coated surface is turned into a signal by an enzyme label.

Test [4] addresses T2, human CEACAM6, extracellular (mature …). The test is described as above. The method, then: as §1

Positions count from the first letter of the chain named.

B1: TPP-3714 (antibody, human IgG2, kappa)
heavy: QVTLRESGPALVKPTQTLTLTCTFSGFSLSTYGIGVGWIRQPPGKALEWLAHIWWNDNKYYSTSLKTRLTISKDTSKNQVVLTMTNMDPVDTATYYCARISLPYFDYWGQGTLVTVSSASTKGPSVFPLAPCSRSTSESTAALGCLVKDYFPEPVTVSWNSGALTSGVHTFPAVLQSSGLYSLSSVVTVPSSNFGTQTYTCNVDHKPSNTKVDKTVERKCCVECPPCPAPPVAGPSVFLFPPKPKDTLMISRTPEVTCVVVDVSHEDPEVQFNWYVDGVEVHNAKTKPREEQFNSTFRVVSVLTVVHQDWLNGKEYKCKVSNKGLPAPIEKTISKTKGQPREPQVYTLPPSREEMTKNQVSLTCLVKGFYPSDIAVEWESNGQPENNYKTTPPMLDSDGSFFLYSKLTVDKSRWQQGNVFSCSVMHEALHNHYTQKSLSLSPG
light: DIQLTQSPSFLSASVGDRVTITCKASQNVGTAVAWYQQKPGKAPKLLIYSASNRYTGVPSRFSGSGSGTEFTLTISSLQPEDFATYYCQQYSSYPLTFGGGTKVEIKRTVAAPSVFIFPPSDEQLKSGTASVVCLLNNFYPREAKVQWKVDNALQSGNSQESVTEQDSKDSTYSLSSTLTLSKADYEKHKVYACEVTHQGLSSPVTKSFNRGEC
notes: humanized from TPP-2971, human IgG2; also called TPP-2971HU2-hIgG2Kappa
Regarding B1, the binding result in test [1] is on record as “no binding (tested: 200 nM)”. This molecule also had a Kd in test [2] of 13 nM. Also, the EC50 was determined as 0.07 nM in test [3] and 0.09 nM in test [4].

B2: TPP-2971 (antibody, mouse IgG1, V domains shown)
VH: QVTLKESGPGILQPSQTLSLTCSFSGFSLSTYGIGVGWIRQPSGKDLEWLAHIWWNDNKYYNTALKSRLTISKDTSNNQVFLKIASVDTADTATYYCARISLPYFDYWGQGTTLTVSS
VL: DIVMTQSQKFMSTSVGDRVSITCKASQNVGTAVAWYQQKPGQSPKLLIYSASNRYTGVPDRFTGSGSGTDFTLTISNMQSEDLADYFCQQYSSYPLTFGAGTKLELK
notes: murine hybridoma antibody, mouse IgG1; also called 792.15H12C9
Regarding B2, the binding result in test [1] is given as “no binding (tested: 200 nM)”. In test [2], this molecule gave an equilibrium dissociation constant (Kd) of 61 nM.

B3: TPP-3187 (antibody, mouse IgG1, V domains shown)
VH: B2 VH with S30T, D46G
VL: B2 VL with S92N, S93N
notes: murine hybridoma antibody, mouse IgG1; also called 792.15C4F4
For B3, the binding result in test [1] was “no binding (tested: 200 nM)”. Further, the Kd in test [2] came to 68 nM.

B4: TPP-3705 (antibody, human IgG2, kappa, V domains shown)
VH: EVQLVESGGGLVQPGGSLRLSCAASGFTFSLYQMHWVRQAPGKGLEWVSWISFSGGNTGYADSVKGRFTISRDNSKNTLYLQMNSLRAEDTAVYYCARATGYSSPWYLDPWGQGTLVTVSS
VL: DIQMTQSPSSLSASVGDRVTITCQASHEIDNYLNWYQQKPGKAPKLLIYDAYWLKTGVPSRFSGSGSGTDFTLTISSLQPEDIATYYCQGYDDLSVTFGGGTKVDIKR
notes: also called 090E-M007-A09-Mat1-hIgG2-hIgG2Kappa
On to B4, for which, in test [1], the binding result is “no binding (tested: 200 nM)”. The molecule also had a Kd in test [2] of 28 nM. Also, the concentration for a half-maximal effect (EC50) in test [3] is 0.12 nM. In addition, in test [4], the response was half-maximal at 0.18 nM (EC50) and the “fold better binding than to human CEACAM3 (ratio of EC50 values)” value is about 620 fold.

B5: TPP-3707 (antibody, human IgG2, kappa, V domains shown)
VH: B4 VH
VL: B4 VL with L54S
notes: also called 090E-M007-A09-Mat2-hIgG2-hIgG2Kappa
Take B5: in test [1], the binding result is recorded as “no binding (tested: 200 nM)”. Also, the dissociation constant Kd in test [2] came out at 28 nM. Also, the EC50 in test [3] turned out to be 0.11 nM. In test [4], the midpoint of the response, the EC50, lay at 0.19 nM and the “fold better binding than to human CEACAM3 (ratio of EC50 values)” value is about 730 fold.

B6: TPP-3821 (antibody, human IgG2, kappa, V domains shown)
VH: QVTLRESGPALVKPTQTLTLTCTFSGFSLSTYGIGVGWIRQPPGKALEWLAHIWWNDNKYYSTSLKTRLTISKDTSKNQVVLTMTNMDPVDTATYYCARISLPYFDYWGQGTLVTVSS
VL: DIQLTQSPSFLSASVGDRVTITCKASQNVGTAVAWYQQKPGKAPKLLIYSASNRYTGVPSRFSGSGSGTEFTLTISSLQPEDFATYYCQQYNNYPLTFGGGTKVEIKR
notes: humanized from TPP-3187, human IgG2; also called 3187HU2-hIgG2Kappa
Turning to B6, the binding result in test [1] is given as “no binding (tested: 200 nM)”. This molecule gave a dissociation constant (Kd) in test [2] of 24 nM.

B7: TPP-3820 (antibody, human IgG2, kappa, V domains shown)
VH: B6 VH with S30T, A46G
VL: B6 VL
notes: humanized from TPP-3187, human IgG2; also called 3187HU1-hIgG2Kappa
Turning to B7, the binding result in test [1] is reported as “no binding (tested: 200 nM)”. Moreover, in test [2], the dissociation constant (Kd) is 27 nM.

B8: TPP-3310 (antibody, human IgG2, kappa)
heavy: B1 heavy with L113T, V114L
light: B1 light
notes: humanized from TPP-2971, human IgG2; also called TPP-2971HU1-hIgG2Kappa
On to B8, for which, in test [1], the binding result is “no binding (tested: 200 nM)”. The molecule also registered a Kd in test [2] of 13 nM. Moreover, the half-maximal effective concentration (EC50) in test [3] is 0.07 nM; in test [4] it was 0.09 nM.

As a reminder, the Kd is a measure of binding affinity in units of concentration. A lower Kd goes with higher affinity. What is called EC50 is the midpoint of the concentration-response curve.

Source of the values: patent US20200181261A1 (Bayer, published 2020).
